Legend:
[1] = molecular target: Leavenworthia alabamica Lal2 polypeptide, a1-1 allele (Leavenworthia alabamica); assay: cell-based or functional assay
[2] = molecular target: Leavenworthia alabamica Lal2 polypeptide, a1-2 allele (Leavenworthia alabamica); assay: cell-based or functional assay
Leavenworthia alabamica Lal2 polypeptide, a1-2 allele (Leavenworthia alabamica), sequence (main, as listed by the source): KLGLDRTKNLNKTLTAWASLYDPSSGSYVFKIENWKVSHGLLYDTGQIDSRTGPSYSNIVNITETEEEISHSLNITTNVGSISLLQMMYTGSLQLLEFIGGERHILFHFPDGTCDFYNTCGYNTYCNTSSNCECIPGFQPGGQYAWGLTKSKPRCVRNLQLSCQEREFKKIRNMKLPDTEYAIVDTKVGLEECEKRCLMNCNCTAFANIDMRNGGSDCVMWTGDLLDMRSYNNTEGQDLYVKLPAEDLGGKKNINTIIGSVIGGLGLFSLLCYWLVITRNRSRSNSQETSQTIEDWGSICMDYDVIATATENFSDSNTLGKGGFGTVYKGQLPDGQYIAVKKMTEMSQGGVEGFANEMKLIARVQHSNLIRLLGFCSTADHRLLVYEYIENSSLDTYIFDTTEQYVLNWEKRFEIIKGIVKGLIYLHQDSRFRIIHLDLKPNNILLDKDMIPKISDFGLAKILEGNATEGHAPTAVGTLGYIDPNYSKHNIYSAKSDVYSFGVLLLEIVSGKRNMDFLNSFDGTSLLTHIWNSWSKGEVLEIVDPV

Leavenworthia alabamica Lal2 polypeptide, a1-1 allele (Leavenworthia alabamica), sequence (chain, as listed by the source limits assumed, form in doubt): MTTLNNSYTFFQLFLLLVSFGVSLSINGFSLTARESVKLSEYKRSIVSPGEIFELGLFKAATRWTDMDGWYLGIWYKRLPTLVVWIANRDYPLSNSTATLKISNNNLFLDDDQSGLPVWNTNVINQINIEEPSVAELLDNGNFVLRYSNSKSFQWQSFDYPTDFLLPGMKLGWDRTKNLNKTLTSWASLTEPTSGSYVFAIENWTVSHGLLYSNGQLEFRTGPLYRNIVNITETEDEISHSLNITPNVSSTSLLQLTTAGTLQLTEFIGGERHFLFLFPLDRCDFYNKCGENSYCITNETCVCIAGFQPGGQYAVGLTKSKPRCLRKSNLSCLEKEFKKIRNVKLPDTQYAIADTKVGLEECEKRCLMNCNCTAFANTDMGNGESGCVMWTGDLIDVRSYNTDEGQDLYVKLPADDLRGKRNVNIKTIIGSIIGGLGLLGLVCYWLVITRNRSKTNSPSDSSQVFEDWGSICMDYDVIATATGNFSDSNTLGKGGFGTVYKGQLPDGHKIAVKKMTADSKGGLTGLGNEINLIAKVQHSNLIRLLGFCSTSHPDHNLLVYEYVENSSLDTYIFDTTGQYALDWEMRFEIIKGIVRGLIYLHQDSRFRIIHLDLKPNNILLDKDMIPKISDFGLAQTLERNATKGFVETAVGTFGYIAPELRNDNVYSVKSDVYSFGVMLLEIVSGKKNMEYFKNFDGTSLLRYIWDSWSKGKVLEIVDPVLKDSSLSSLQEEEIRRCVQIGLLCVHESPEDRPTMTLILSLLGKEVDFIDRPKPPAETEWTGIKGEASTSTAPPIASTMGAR

Leavenworthia alabamica SCRL polypeptide, a1-1 allele
Pollen rejection reactions observed (fewer than ten pollen tubes in the pistil); female line 1-15 (Lal2 transformant) x male line 3-13 (SCRL transformant), 5 crosses [1]: 3 of 5 crosses

Leavenworthia alabamica SCRL polypeptide, a1-1 allele (ligand)
Pollen rejection reactions observed (fewer than ten pollen tubes in the pistil); female line 1-15 (Lal2 transformant) x male line 4-21 (SCRL transformant), 5 crosses [1]: 3 of 5 crosses | Pollen rejection reactions observed (fewer than ten pollen tubes in the pistil); female line 1-25 (Lal2 transformant) x male line 3-13 (SCRL transformant), 5 crosses [1]: 4 of 5 crosses | Pollen rejection reactions observed (fewer than ten pollen tubes in the pistil); female line 1-25 (Lal2 transformant) x male line 4-21 (SCRL transformant), 5 crosses [1]: 1 of 5 crosses

B1: Leavenworthia alabamica SCRL, a2 allele (truncated protein) (ligand)
chain: MAKSVRLISFIIYLTINMLIFAVNPKPHSSQVPPIPDPGKHRRCF
Crosses that produced fruit or had germinated pollen tubes; a1-2 recipient plant x a2 pollen donors (% of 9 crosses) [2]: 89

Reference: patent US20150322445A1
